Data set [1] concerns the target T1, CRP-MTB E178K (Mycobacterium tuberculosis, UniProt P9WMH3 1-224, E178K).
T1 sequence: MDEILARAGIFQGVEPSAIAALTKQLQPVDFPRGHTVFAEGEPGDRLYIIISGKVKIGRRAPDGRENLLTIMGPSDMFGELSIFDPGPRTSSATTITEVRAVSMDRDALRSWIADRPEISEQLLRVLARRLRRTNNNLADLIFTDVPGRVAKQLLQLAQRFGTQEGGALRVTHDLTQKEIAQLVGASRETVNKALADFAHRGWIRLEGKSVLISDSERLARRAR
Briefly: fluorescence anisotropy; 1 mM cAMP. The following applies: protein: recombinant; tags: His-tag (pET-3a); chain copies: 2; blunt. (In fluorescence polarisation assays a small probe gives low polarisation when free and higher when bound to something large.)

Data set [2] deals with T1, CRP-MTB E178K. Briefly: fluorescence anisotropy; 0.1 mM cAMP. The following applies: protein: recombinant; tags: His-tag (pET-3a); chain copies: 2; blunt.
The target in data set [3] is T2, CRP-MTB L47P (Mycobacterium tuberculosis, UniProt P9WMH3 1-224, L47P).
T2 sequence: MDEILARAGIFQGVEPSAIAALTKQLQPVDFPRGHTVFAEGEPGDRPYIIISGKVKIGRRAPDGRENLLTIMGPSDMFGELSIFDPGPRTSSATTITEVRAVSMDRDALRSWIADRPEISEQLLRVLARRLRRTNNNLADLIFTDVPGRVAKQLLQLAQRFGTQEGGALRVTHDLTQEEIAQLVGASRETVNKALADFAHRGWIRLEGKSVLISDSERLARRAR
Briefly: fluorescence anisotropy; 0.1 mM cAMP. The following applies: protein: recombinant; tags: His-tag (pET-3a); chain copies: 2; blunt.

For data set [4], the target named is T1, CRP-MTB E178K. Briefly: fluorescence anisotropy; no cAMP (apo). The following applies: protein: recombinant; tags: His-tag (pET-3a); chain copies: 2; blunt.
Data set [5] concerns the target T2, CRP-MTB L47P. In words: fluorescence anisotropy; no cAMP (apo). The following applies: protein: recombinant; tags: His-tag (pET-3a); chain copies: 2; blunt.
The target of data set [6] is T3, cAMP receptor protein from Mycobacterium tuberculosis (Mycobacterium tuberculosis), P9WMH3.
T3 chain: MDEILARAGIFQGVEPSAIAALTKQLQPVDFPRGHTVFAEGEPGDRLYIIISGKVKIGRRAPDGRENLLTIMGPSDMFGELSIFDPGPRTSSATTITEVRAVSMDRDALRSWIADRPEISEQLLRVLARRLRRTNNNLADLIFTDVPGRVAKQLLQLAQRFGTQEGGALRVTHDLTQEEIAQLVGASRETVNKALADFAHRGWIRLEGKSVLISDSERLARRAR
Briefly: SEC. The conditions noted are these: remark: other sources report otherwise.

Data set [7] has as its target T3, cAMP receptor protein from …. Briefly: AUC. The following applies: remark: other sources report otherwise.

A value given as a limit tells only on which side of the number the result lay.

Our source for the Ka, stoichiometry N and Kd values is article PMC8026907.

What is called stoichiometry N is the number of molecules, sites or subunits per partner or assembly. Usually Kd stands for a measure of binding affinity in units of concentration.

B1: SerC promoter 32-bp, fluorescein (dsDNA)
DNA 1: GCGCGTAGTGTGAACAAGCTCACATGCAAGCC
DNA 2: GGCTTGCATGTGAGCTTGTTCACACTACGCGC
Consider B1, for which the Ka in data set [1] was 21 ± 12.9 1e8 M-1; in data set [2], 10 ± 5 1e8 M-1; in data set [3], 7.3 ± 3 1e8 M-1; in data set [4] it was 15 ± 5.3 1e8 M-1; in data set [5], 2.7 ± 0.9 1e8 M-1.

B2: cAMP receptor protein from Mycobacterium tuberculosis, P9WMH3 (natural protein)
chain: MDEILARAGIFQGVEPSAIAALTKQLQPVDFPRGHTVFAEGEPGDRLYIIISGKVKIGRRAPDGRENLLTIMGPSDMFGELSIFDPGPRTSSATTITEVRAVSMDRDALRSWIADRPEISEQLLRVLARRLRRTNNNLADLIFTDVPGRVAKQLLQLAQRFGTQEGGALRVTHDLTQEEIAQLVGASRETVNKALADFAHRGWIRLEGKSVLISDSERLARRAR
For the molecule B2, the stoichiometry N in data set [6] stood at 2. In data set [7], this molecule gave a Kd below 10 nM and a stoichiometry N of 2.
